Laboratory results taken from patent publication US9273342B2, “Methods and systems for evaluating and predicting the reactivity of monooxygenase enzymes” (University of Rochester, priority 2011, dated 2016).
Substitutions are numbered along the chain they refer to. Values joined by “and” are separate entries in the source; they are usually repeats but may differ in a detail not shown here. Equal values may be shown once.

B1: FL#62: engineered variant of P450 monooxygenase CYP102A1, SEQ ID NO 15, parent of the libraries (protein)
chain: MTIKEMPQPKTFGELKNLPLLNTDKPVQALMKIADELGEIFKFEAPGRVTRYLSSQRLIKEACDESRFDKNLSQALKFARDSVGDGLATSWTHEKNWKKAHNILLPSFSQQAMKGYHAMMVDIAVQLVQKWERLNADEHIEVSEDMTRLTLDTIGLCGFNYRFNSFYRDQPHPFIISMVRTLDEVMNKLQRANPDDPVYDENKRQCQEDIKVMNDLVDKIIADRKARGEQSDDLLTQMLNGKDPETGEPLDDGNISYQIITFLIAGHETTSGLLSFALYFLVKNPHVLQKVAEEAARVLVDPVPSYKQVKQLKYVGMVLNEALRLWPTAPAFSLYAKEDTVLGGEYPLEKGDEVMVLIPQLHRDKTIWGDDVEEFRPERFENPSAIPQHAFKPFGNGQRACIGQQFALHEATLVLGMMLKHFDFEDHTNYELDIKETLTLKPEGFVVKAKSKKIPLGGIPSPSTEQSAKKVRKKAENAHNTPLLVLYGSNMGTAEGTARDLADIAMSKGFAPQVATLDSHAGNLPREGAVLIVTASYNGHPPDNAKQFVDWLDQASADEVKGVRYSVFGCGDKNWATTYQKVPAFIDETLAAKGAENIADRGEADASDDFEGTYEEWREHMWSDVAAYFNLDIENSEDNKSTLSLQFVDSAADMPLAKMHGAFSTNVVASKELQQPGSARSTRHLEIELPKEASYQEGDHLGVIPRNYEGIVNRVTARFGLDASQQIRLEAEEEKLAHLPLAKTVSVEELLQYVELQDPVTRTQLRAMAAKTVCPPHKVELEALLEKQAYKEQVLAKRLTMLELLEKYPACEMKFSEFIALLPSIRPRYYSISSSPRVDEKQASITVSVVSGEAWSGYGEYKGIASNYLAELQEGDTITCFISTPQSEFTLPKDPETPLIMVGPGTGVAPFRGFVQARKQLKEQGQSLGEAHLYFGCRSPHEDYLYQEELENAQSEGIITLHTAFSRMPNQPKTYVQHVMEQDGKKLIELLDQGAHFYICGDGSQMAPAVEATLMKSYADVHQVSEADARLWLQQLEEKGRYAKDVWAG
B2: FL#41: engineered CYP102A1 variant used as reference P450 for fingerprint normalization, SEQ ID NO 3 (protein)
chain: MTIKEMPQPKTFGELKNLPLLNTDKPVQALMKIADELGEIFKFEAPGRVTRYLSSQRLIKEACDESRFDKNLSQALKFVRDFAGDGLATSWTHEKNWKKAHNILLPSFSQQAMKGYHAMMVDIAVQLVQKWERLNADEHIEVPEDMTRLTLDTIGLCGFNYRFNSFYRDQPHPFITSMVRALDEAMNKLQRANPDDPAYDENKRQFQEDIKVMNDLVDKIIADRKASGEQSDDLLTHMLNGKDPETGEPLDDENIRYQIITFLIAGHETTSGLLSFALYFLVKNPHVLQKAAEEAARVLVDPVPSYKQVKQLKYVGMVLNEALRLWPTAPAFSLYAKEDTVLGGEYPLEKGDELMVLIPQLHRDKTIWGDDVEEFRPERFENPSAIPQHAFKPFGNGQRACIGQQFALHEATLVLGMMLKHFDFEDHTNYELDIKETLTLKPEGFVVKAKSKKIPLGGIPSPSTEQSAKKVRKKAENAHNTPLLVLYGSNMGTAEGTARDLADIAMSKGFAPQVATLDSHAGNLPREGAVLIVTASYNGHPPDNAKQFVDWLDQASADEVKGVRYSVFGCGDKNWATTYQKVPAFIDETLAAKGAENIADRGEADASDDFEGTYEEWREHMWSDVAAYFNLDIENSEDNKSTLSLQFVDSAADMPLAKMHGAFSTNVVASKELQQPGSARSTRHLEIELPKEASYQEGDHLGVIPRNYEGIVNRVTARFGLDASQQIRLEAEEEKLAHLPLAKTVSVEELLQYVELQDPVTRTQLRAMAAKTVCPPHKVELEALLEKQAYKEQVLAKRLTMLELLEKYPACEMKFSEFIALLPSIRPRYYSISSSPRVDEKQASITVSVVSGEAWSGYGEYKGIASNYLAELQEGDTITCFISTPQSEFTLPKDPETPLIMVGPGTGVAPFRGFVQARKQLKEQGQSLGEAHLYFGCRSPHEDYLYQEELENAQSEGIITLHTAFSRMPNQPKTYVQHVMEQDGKKLIELLDQGAHFYICGDGSQMAPAVEATLMKSYADVHQVSEADARLWLQQLEEKGRYAKDVWAG
B3: Wild-type CYP102A1: fatty acid hydroxylase CYP102A1 from Bacillus megaterium, SEQ ID NO 1 (protein, listed as Bacillus megaterium)
chain: B2 chain with A88F

Experiments:
Format in all cases: biochemical
[1] = Monooxygenase activity on artemisinin (ART), total turnovers by HPLC after benzoyl chloride derivatization; details: 0.5 mM ART, 1 μM P450 variant; mol hydroxylation products/mol enzyme
Source text: Additional 5,000 FL#62-derived variants were produced by simultaneous active-site mutagenesis and subjected to high throughout fingerprinting as described in Example 2. From the acquired fingerprint data, 259 functionally diverse variants (i.e., with a unique fingerprint) were isolated according to the procedure described in Example 2 and combined with the previously isolated 261 variants (Example 2), to yield a collection of 520 functionally diverse, fingerprinted monooxygenases. […] The ART oxygenation activity of the training set P450s was characterized by LC-MS analysis of reactions with ART and each of these variants and quantified in terms of total turnovers (TTN). […] The fingerprints of the training set P450s (both ART-reactive and ART-unreactive) were then correlated with the measured ART activities (TTN values) by multiple linear regression (MLR) analysis, where ART activity is the dependent variable, Y, and the five components of their fingerprints (corresponding to the normalized activities on probes 1-5) are five independent variables (x1, x2, x3, x4, x5) potentially correlated with Y. This process yielded best-fit regression coefficients for the training set and a candidate fingerprint-based model (Y=0.44x1+0.52x2+0.44x3+0.72x4+0.47x5) predictive of ART-reactivity. […]

[2] = Regio- and stereoselectivity (site-selectivity) of ART hydroxylation, product distribution by HPLC
Source text: Additional 5,000 FL#62-derived variants were produced by simultaneous active-site mutagenesis and subjected to high throughout fingerprinting as described in Example 2. From the acquired fingerprint data, 259 functionally diverse variants (i.e., with a unique fingerprint) were isolated according to the procedure described in Example 2 and combined with the previously isolated 261 variants (Example 2), to yield a collection of 520 functionally diverse, fingerprinted monooxygenases. From this pool, twenty monooxygenases were randomly isolated to serve as the training set for generating a fingerprint model predictive of ART-reactivity and ranking the members of the monooxygenase library according to this reactivity property, as schematically illustrated in FIG. 13. The ART oxygenation activity of the training set P450s was characterized by LC-MS analysis of reactions with ART and each of these variants and quantified in terms of total turnovers (TTN). […] The fingerprints of the training set P450s (both ART-reactive and ART-unreactive) were then correlated with the measured ART activities (TTN values) by multiple linear regression (MLR) analysis, where ART activity is the dependent variable, Y, and the five components of their fingerprints (corresponding to the normalized activities on probes 1-5) are five independent variables (x1, x2, x3, x4, x5) potentially correlated with Y. This process yielded best-fit regression coefficients for the training set and a candidate fingerprint-based model (Y=0.44x1+0.52x2+0.44x3+0.72x4+0.47x5) predictive of ART-reactivity. Using this model, the remaining P450s in the 520-member collection of fingerprinted P450s were ranked (from highest to lowest predicted ART-reactivity). The 50 top-ranking variants as well as the 20 bottom-ranking variants were then tested experimentally in order to validate the predictions.
Measurement of Monooxygenase Activity on Artemisinin (ART). These isolated ART hydroxylation products were used as standards to generate calibration curves for quantifying ART-hydroxylation activity of FL#62 and the other monooxygenases. This activity was measured as total turnovers via quantification of the hydroxylation products from enzymatic reactions via derivatization with benzoyl chloride followed by HPLC analysis. Briefly, after the enzymatic reaction (0.5 mM ART, 1 μM P450 variant (purified or in cell lysate); 2 μM […], 100 μM NADP^+, 50 mM phosphoric acid), the mixture was added with 9-fluorenone as internal standard (0.5 mM) and extracted with dicholoromethane (0.2 mL). After removing the solvent, the residue was added with 0.1 mL dichloromethane, benzoyl chloride (5 equiv.), and DMAP (10 equiv.) for 3 hours at room temperature. The derivatized products (benzoyl esters) were analyzed using an Agilent 1200 UPLC. Analytical condition: Agilent XDB-C18 column (1.8 um, 4.4×50 mm); UV wavelength: 230 nm; Solvent A: 1% trifluoroacetic acid in deionized H2O; Solvent B: 1% formic acid in acetonitrile. gradient condition: 0-1 min: 20% B; 1-8 mins: 20% B to 90% B; 8-10 mins: 90% B; […]: 90% B to 20% B; 10.3-11.3 min: 20% B. Flow rate: 0.8 mL/min. The area under the curve (AUC) corresponding to the ART hydroxylated products were normalized to the internal standard AUC and used to quantify these products using the calibration curves. Total turnover numbers were calculated from number of mol hydroxylation products/mol enzyme. […]

[3] = Fingerprinting: demethylation activity on methoxy probes 1-5, Purpald colorimetric assay; details: formaldehyde formation, FIG. 5A
Description: To test the viability of compounds I-5 as probes, the fatty acid hydroxylase CYP102A1 (SEQ ID NO 1) from Bacillus megaterium and […] engineered variants thereof (SEQ ID NO 3, SEQ ID NO 4, SEQ ID NO 5, SEQ ID NO 6, SEQ ID NO 8, SEQ ID NO 11, SEQ ID NO 12, SEQ ID NO 14, SEQ ID NO 15) were fingerprinted. […] Parallel reactions with 1-5 were carried out using these P450s in purified form and a NADPH cofactor regeneration system containing a […] (PTDH).
We investigated the utility of these probes for high-throughput profiling of a large library of engineered monooxygenase variants. […] The P450 libraries were expressed in 96-well plates (DH5a cells) and screened against probes 1-5 in parallel to acquire a fingerprint for each functional P450 variant occurring in these libraries. Reactions with the probes (1 mM, 60 min) were carried out using cell lysate in the presence of the phosphite/PTDH cofactor regeneration system, and probe activity was quantified based on absorbance at 550 nm after 60-min incubation with Purpald (30 mM). […] This example illustrates how probes of general formula II such as compound 1-5 could be used for fingerprinting a large library of monooxygenases in a high throughput manner.
Expression and Fingerprinting of P450 Libraries in 96-Well Plates. 96-deep well plates containing 400 μL LB medium (100 mg ampicillin L-1) per well were inoculated with single colonies from the P450 libraries. The total number of screened P450 variants was about 10,000. In each plate, 8 wells were inoculated with the parent enzyme FL#62. […] P450 demethylation activity on probe 1-5 was measured in parallel reactions with the aid of a Beckman Coulter Multimek 96 automated pipettor and a TECAN Infinity plate reader. […] After incubation for 1 hour at room temperature, plates were added with 50 μL 2 M NaOH containing 150 mM Purpald and the absorbance at 550 nm measured using the plate reader. The measured demethylation activity of each P450 variant on the five probes was then normalized to the activity of the parent enzyme FL#62 (SEQ ID NO 15) from the same plate. […]

| Molecule | total turnovers (TTN) for ART hydroxylation [1] | selectivity for the desired site ((S)-C7 ART hydroxylation, regio- and stereoselectivity) [2] [%] | C6a-hydroxy-ART, share in product ratio C7(S):C7(R):C6a ([2]; ART hydroxylation products) | C7(R)-hydroxy-ART, share in product ratio C7(S):C7(R):C6a ([2]; ART hydroxylation products) | C7(S)-hydroxy-ART, share in product ratio C7(S):C7(R):C6a ([2]; ART hydroxylation products) | site-selectivity value for (S)-C7 ART hydroxylation ([2]; fraction used for the fingerprint-site reactivity correlation) | probe activity on probes 1-5 (in words) [3] |
| --- | --- | --- | --- | --- | --- | --- | --- |
| B1 | 340 TTN and 339 TTN | 83 | 7 | 10 | 83 | 0.83 | high activity on all the probes |
| B2 |  |  |  |  |  |  | minimal yet detectable activity on all five probes |
| B3 |  |  |  |  |  |  | no activity on three out of the five probes |
